Data on 36 sequences can be found in the supplement of paper PMC10567573.

This series can be described thus: protein stability index of a GFP-peptide fusion (GPS, HEK-293T) (PSI 1-6); higher = more stable. Conditions: c terminus: a fixed tail appended.

± gives the standard deviation.
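Further: 24-mer peptide tiles fused after GFP, lentivirally expressed, FACS-sorted into six equal bins by GFP/DsRed ratio, decoded by Illumina sequencing, PSI is the read-weighted mean bin number.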

In the case of RNVRFSDEGGFTCFFRDHSYQEEA [MOG], the protein stability index runs as follows: (treatment: DMSO) 3.54 ± 0.35; (treatment: MLN4924 1 uM, 8 h) 3.75 ± 0.59.

Take RPRTRKVKSVSPQGNSVDRMAAPR [NCF4]: the protein stability index is, setting by setting: (treatment: DMSO) 4.85 ± 0.15; (treatment: MLN4924 1 uM, 8 h) 4.795 ± 0.046.

Consider RQDADAWTLYKILDSCKQLTLAQG [SMG5], for which the protein stability index was 2.29 ± 0.26 (treatment: DMSO) and 2.32 ± 0.083 (treatment: MLN4924 1 uM, 8 h).

As for RQGNPSWKKQQKCDECGKIFSQSS [ZNF396], the protein stability index (treatment: DMSO) came to 3.57 ± 0.33 and the protein stability index (treatment: MLN4924 1 uM, 8 h) turned out to be 3.92 ± 0.11.

Regarding RQIIKLNRRLQLLEEENKERAKRE [MFF], the protein stability index stood at 3.81 ± 0.36 (treatment: DMSO) and 4.18 ± 0.23 (treatment: MLN4924 1 uM, 8 h).

In turn, RRDEQDDDDKGDSKETRLTLMEEV [GOLPH3] returned a protein stability index (treatment: DMSO) of 5.58 ± 0.23 and a protein stability index (treatment: MLN4924 1 uM, 8 h) of 5.51 ± 0.2.

Sequence RRDGKWQNVHFHRSGSPTVPIKPP [CAMK2D] came in with a protein stability index (treatment: DMSO) of 3.32 ± 0.27 and a protein stability index (treatment: MLN4924 1 uM, 8 h) of 3.54 ± 0.4.

Consider RRGIALIFNHERFFWHLTLPERRG [CASP6], for which the protein stability index (treatment: DMSO) was 2.75 ± 1.6 and the protein stability index (treatment: MLN4924 1 uM, 8 h) is 2.04 ± 0.68.

Consider RRKQRYWPFSMDCTGTEAHISSCK [LOXL2], for which the protein stability index is 3.17 ± 0.49 (treatment: DMSO) and 3.52 ± 0.57 (treatment: MLN4924 1 uM, 8 h).

Regarding RRLEQRWGFGLEELYGLALRFFKE [ACBD3], the protein stability index was found to be 2.53 ± 0.8 (treatment: DMSO) and 2.31 ± 0.63 (treatment: MLN4924 1 uM, 8 h).

Take RRPEDQELESLSAIEAELEKVAHQ [CHGA]: the protein stability index runs as follows: (treatment: DMSO) 5.15 ± 0.09; (treatment: MLN4924 1 uM, 8 h) 5.3 ± 0.24.

For RRYLEKSIKMGKRNGLHLPEQVQN [NLN], the protein stability index stood at 3.2 ± 0.42 (treatment: DMSO) and 3.23 ± 0.23 (treatment: MLN4924 1 uM, 8 h).

Regarding RSDGKTCAKLDSCALGDHGCEHSC [MATN2], the protein stability index is, setting by setting: (treatment: DMSO) 4.54 ± 0.31; (treatment: MLN4924 1 uM, 8 h) 4.59 ± 0.32.

On to RSRIEEQSQLICILKRRSDEALER [CCDC89], for which the protein stability index by setting is: (treatment: DMSO) 3.86 ± 0.12; (treatment: MLN4924 1 uM, 8 h) 3.76 ± 0.23.

For the sequence RSSALWSEMLDITMKESLTTREIR [NET1], the protein stability index is, setting by setting: (treatment: DMSO) 3.13 ± 0.23; (treatment: MLN4924 1 uM, 8 h) 3.23 ± 0.23.

As for RSSGSEGTPADTGDLSPGHGASAP [PWWP2B], the protein stability index is, setting by setting: (treatment: DMSO) 5.38 ± 0.34; (treatment: MLN4924 1 uM, 8 h) 5.35 ± 0.2.

On to RVAKKLQSGLVWTNCWLIRELNLP [ALDH8A1], for which the protein stability index by setting is: (treatment: DMSO) 2.5 ± 0.38; (treatment: MLN4924 1 uM, 8 h) 2.37 ± 0.54.

For RVQGGCYRFDSSSCSSEDNLSLVC [DRICH1], the protein stability index by setting is: (treatment: DMSO) 2.58 ± 0.43; (treatment: MLN4924 1 uM, 8 h) 2.62 ± 0.32.

In the case of RVYDGREILTCGRDGEPEPMQKLQ [RBBP5], the protein stability index amounted to 4.02 ± 0.38 (treatment: DMSO) and 3.94 ± 0.31 (treatment: MLN4924 1 uM, 8 h).

RWASAPPLYTLIDVLKYSYVRLVC [ZSWIM9]: the protein stability index by setting is: (treatment: DMSO) 2.6 ± 0.45; (treatment: MLN4924 1 uM, 8 h) 3.01 ± 0.74.

Take RWETSSWSECSRTCGEGYQFRVVR [ADAMTSL2]: the protein stability index runs as follows: (treatment: DMSO) 2.5 ± 0.84; (treatment: MLN4924 1 uM, 8 h) 2.21 ± 0.35.

Consider RWNPWSTEVPYATFTEHPMKYTSE [TPRG1], for which the protein stability index reads like this: (treatment: DMSO) 3 ± 0.6; (treatment: MLN4924 1 uM, 8 h) 2.74 ± 0.24.

As to RYDHGTFFPMGDEGASSQIGRAAG [HDAC6], the protein stability index was 4.24 ± 0.37 (treatment: DMSO) and 4.13 ± 0.22 (treatment: MLN4924 1 uM, 8 h).

Take RYHNSHPLRERARKLSQGILIIRF [YJU2B]: the protein stability index by setting is: (treatment: DMSO) 3.08 ± 0.35; (treatment: MLN4924 1 uM, 8 h) 2.67 ± 0.45.

In the case of SAASSAAAGEPLECPTCGHSYNVT [RNF208], the protein stability index runs as follows: (treatment: DMSO) 4.87 ± 0.27; (treatment: MLN4924 1 uM, 8 h) 4.77 ± 0.24.

Turning to SAASTSFQPQPVQPQQGYIPPMAQ [ZNF207], the protein stability index by setting is: (treatment: DMSO) 4.3 ± 0.17; (treatment: MLN4924 1 uM, 8 h) 4.38 ± 0.1.

Consider SAHRALYRRHVLGIVLQGPALCFA [TMEM175], for which the protein stability index was 2.71 ± 0.62 (treatment: DMSO) and 2.58 ± 0.62 (treatment: MLN4924 1 uM, 8 h).

With SAMAENILAAACESETRKAAKRMR [NOL4L], the protein stability index runs as follows: (treatment: DMSO) 4.32 ± 0.2; (treatment: MLN4924 1 uM, 8 h) 4.69 ± 0.46.

Turning to SAQNGLASSLPAEVHSLTLSPPEQ [PLAGL1], the protein stability index by setting is: (treatment: DMSO) 5 ± 0.15; (treatment: MLN4924 1 uM, 8 h) 5.03 ± 0.22.

Consider SCAPSASIPKLKLTRPVPAGADLP [PWWP2B], for which the protein stability index reads like this: (treatment: DMSO) 3.21 ± 0.25; (treatment: MLN4924 1 uM, 8 h) 3.35 ± 0.27.

In the case of SCEACKAFFKRTIQGNIEYSCPAT [ESRRG], the protein stability index was 2.46 ± 0.25 (treatment: DMSO) and 2.64 ± 0.37 (treatment: MLN4924 1 uM, 8 h).

For SCSEICYTFIIVPKMLVDLLSQKK [OR10K2], the protein stability index amounted to 2.91 ± 0.77 (treatment: DMSO) and 2.71 ± 0.79 (treatment: MLN4924 1 uM, 8 h).

Sequence SDLGLLRLCTWLLALSPDLSLSNA [FANCE] displayed a protein stability index (treatment: DMSO) of 3.08 ± 0.33 and a protein stability index (treatment: MLN4924 1 uM, 8 h) of 3.17 ± 0.47.

As to SDMDRNKTILGNAHDNSEELERAR [ANKRD44], the protein stability index was determined as 5.58 ± 0.16 (treatment: DMSO) and 5.57 ± 0.3 (treatment: MLN4924 1 uM, 8 h).

With SEDRTVRVWLKRDSGQYWPSVYHA [WDFY2], the protein stability index was 2.27 ± 0.12 (treatment: DMSO) and 2.37 ± 0.21 (treatment: MLN4924 1 uM, 8 h).

For SEEYRAPRPQSEESWDEEDKRNYP [CHGB], the protein stability index amounted to 5.47 ± 0.19 (treatment: DMSO) and 5.42 ± 0.3 (treatment: MLN4924 1 uM, 8 h).
